Test results as given in article PMC7132299 (Proceedings of the National Academy of Sciences of the …, 2020).
Where two headings read alike, the source gives them in different places.

Columns and labels:
[1] = target: LRX11 (insect-cell protein, limits not stated for the experiment) (Arabidopsis thaliana); experiment: SEC-MALS
[2] = system: wild-type pollen tubes; experiment: Pollen tube growth assay after peptide addition; assay type: cell-based, Arabidopsis thaliana; settings: peptide at 50 and 100 nM
[3] = target: biotinylated LRX8 (49 to 400) fused to a noncleavable Avi-tag (Arabidopsis thaliana); experiment: grating-coupled interferometry
[4] = target: LRX8_(C157A.Y87A.A133F) (Arabidopsis thaliana); experiment: ITC
[5] = target: LLG3 ectodomain (residues 24 to 137) (Arabidopsis thaliana) (UniProt Q9M0I0); experiment: ITC
[6] = target: LRX8_(49–400) (Arabidopsis thaliana); experiment: ITC
[7] = target: LLG2 ectodomain (residues 24 to 135) (Arabidopsis thaliana) (UniProt Q6NLF4); experiment: ITC
[8] = target: LLG3 ectodomain (residues 24 to 137) (Arabidopsis thaliana) (UniProt Q9M0I0); experiment: ITC; remark: listed apart in the source
[9] = target: LRX8_(49–400) (Arabidopsis thaliana); experiment: ITC; remark: listed apart in the source
[10] = target: LRX8 (insect-cell protein, limits not stated for the experiment) (Arabidopsis thaliana); experiment: SEC-MALS
[11] = target: LRX8_(49–400) (Arabidopsis thaliana); experiment: ITC; remark: listed apart in the source
[12] = target: the molecule itself; experiment: SEC-MALS

Sequence of LLG3 ectodomain (residues 24 to 137) (Arabidopsis thaliana) (Q9M0I0 24-137): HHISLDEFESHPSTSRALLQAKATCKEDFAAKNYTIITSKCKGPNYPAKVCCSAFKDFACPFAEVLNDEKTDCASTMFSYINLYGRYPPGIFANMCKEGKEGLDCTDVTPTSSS
Sequence of LLG2 ectodomain (residues 24 to 135) (Arabidopsis thaliana) (Q6NLF4 24-135): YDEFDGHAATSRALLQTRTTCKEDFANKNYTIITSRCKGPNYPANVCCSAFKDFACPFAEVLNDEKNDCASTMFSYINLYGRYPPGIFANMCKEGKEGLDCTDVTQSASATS

For “LRX11 (insect-cell protein, limits not stated for the experiment) (domain or fragment)”, the stoichiometry N [1] was 2.

With “PTYNSCRRKCKRDRGYAARRYKRYRYVNADIKRNHSGYPCRICSRLYGRN [RALF4scrambled]” the “effect on pollen tube growth, in words” value [2] was “no effect”.

“RALF4_(folded) (RALF4 residues 58 to 110, isolated from insect cells) (peptide)” was tested, and the kon [3] was 400000 M⁻¹ s⁻¹, the Kd [4] was 2.5 nM and the Kd [5] was 11000 nM. For the same molecule, the Kd [6] was 3.5 nM, the Kd [7] was 500 nM and the Kd [8] was 1500 nM. For the same molecule, the Kd [9] was 100 nM, the stoichiometry N [10] was 1 and the stoichiometry N [1] was 1.

With RRYIGYDALKKNNVPCSRRGRSYYDAKKRRRNNPYRRGCSAITHAYRYAR [RALF4_(C86A.C105A)] the fold reduction of affinity (against RALF4 (folded)) [11] was 10 fold.

In the case of RRYIGYDALKKNNVPASRRGRSYYDAKKRRRNNPYRRGASAITHAYRYAR [RALF4_(C76A.C86A.C99A.C105A)], the fold reduction of affinity (against RALF4 (folded)) [11] is reported as 10 fold.

RRYIGYDALKKNNVPCSRRGRSYYDCKKRRRNNPYRRGCSAITHCYRYAR [RALF4_(synthetic)] gave a Kd [11] of 60 nM.

In the case of RRYIGYDALKKNNVPCSRRGRSAADCKKRRRNNPYRRGCSAITHCYRYAR [RALF4_(Y83A.Y84A)], the Kd [11] is reported as 1400 nM.

B1: LRX8 (insect-cell protein, limits not stated for the experiment) (domain or fragment)
chain: ENGDLPDDIEYEVDLDLKFANNRLKRAYIALQAWKKAFYSDPFNTAANWVGPDVCSYKGVFCAPALDDPSVLVVAGIDLNHADIAGYLPPELGLLTDVALFHVNSNRFCGVIPKSLSKLTLMYEFDVSNNRFVGPFPTVALSWPSLKFLDIRYNDFEGKLPPEIFDKDLDAIFLNNNRFESTIPETIGKSTASVVTFAHNKFSGCIPKTIGQMKNLNEIVFIGNNLSGCLPNEIGSLNNVTVFDASSNGFVGSLPSTLSGLANVEQMDFSYNKFTGFVTDNICKLPKLSNFTFSYNFFNGEAQSCVPGSSQEKQFDDTSNCLQNRPNQKSAKECLPVVSRPVDCSKDKCAGG
modifications: N-glycosylated
For B1, the “stoichiometry N” value [12] was 2.
